For eleven molecules, EC50 results are on record in patent US20100292089A1 (CYTOS BIOTECHNOLOGY, published 2010).

T1: Qβ (RNA bacteriophage Qbeta, UniProt P03615 2-133)
T1 construct: The description says it is a VLP of RNA bacteriophage Qbeta; also called Qbeta; VLP of RNA bacteriophage Qbeta
T1 sequence: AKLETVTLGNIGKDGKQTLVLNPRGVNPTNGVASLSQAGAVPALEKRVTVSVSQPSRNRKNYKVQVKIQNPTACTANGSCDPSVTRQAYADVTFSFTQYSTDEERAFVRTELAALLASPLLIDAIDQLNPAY

B1: Qb#3 whole IgG2 (antibody, V domains shown)
VH: QVQLQESGPGLVKPSETLSLTCTVSGGSISSGNYYWSWIRQTPEKGLEWLGYVHYTGSSKLNPSLKSRVTISVDTYTNQFSLSLSSMTAADTAVYYCARGKNCANDICYIGSWFDPWGQGTLVTVSS
VL: ELVMTQSPSSLSASVGDRVTITCRASQGVSRALAWYQQKPGNPPKLLIYDASNLQSGVPSRFSGGGSGTEFILTISSLQPEDFATYYCQQYNAYPWTFGQGTKLEIK
notes: domain: γ2 heavy chain constant region; also called Qβ#3 IgG2; pCB15-Qb#3-IgG2 product; not shown: human κ light chain constant region (vector pCMV-LC)
B2: Qb#2 whole IgG2 (antibody, V domains shown)
VH: EVQLLESGPGLVKPSETLSLTCTVSGGSISSGNYYWSWIRQTPEKGLEWLGYVHYTGSSKLNPSLKSRVTISVDTYTNQFSLSLSSMTAADTAVYYCARGKNCANDICYIGSWFDPWGQGTLVTVSS
VL: ELGLTQPPSVSGAPGQRVTISCTGSSSNIGRFDVHWYQQLPGTAPKLLIYGNTNRPSGVPDRFSGSKSGSSASLAITGLQAEDEADYYCQSYDRSLSGVVFGGGTQLTVLG
notes: domain: γ2 heavy chain constant region; also called Qβ#2 IgG2; pCB15-Qb#2-IgG2 product
B3: Qb#8 whole IgG2 (antibody, V domains shown)
VH: QVQLQESGGGWVQSGGSLRLSCAASGFSFSSYAMSWVRQAPGKGLEWVSAMSPIGGSTFYADSVKGRFTISRDNSKNTLFLQMNSLRAEDTAVYYCAKDAVVTAVGLGRYFDLWGRGTLVSVSS
VL: ELVVTQEPSVSGAPGQSVTISCTGGSSNIGASYDVHWYKQLPGAAPILLIYANYIRPSGVPDRFSASKSGTSASLAITGLQAEDEADYYCQSYDSSLSGVVFGGGTKLTVLG
notes: domain: γ2 heavy chain constant region; also called Qβ#8 IgG2; pCB15-Qb#8-IgG2 product; not shown: human κ light chain constant region (vector pCMV-LC)
B4: Qb#5 whole IgG2 (antibody, V domains shown)
VH: EVQLVQSGPGLVKPSETLSLTCTVSGGSISSTSYSWGWIRQPPGKGLEWIATVSYSGRSYSNPSLKSRVTTSVDTSKNQFSLRLGSVTAADTAVYYCARLYYIWRSYHSGRFDYWGQGTLVPVSS
VL: ELVLTQPPSVSGAPGQRVSISCTGSSSNIGARYDVHWYQQLPGTAPKLLIYGNTNRPSGVPDRFSGSKSGSSASLAITGLQAEDEADYYCQSYDRSLSGVVFGGGTKLTVLG
notes: domain: γ2 heavy chain constant region; also called Qβ#5 IgG2; pCB15-Qb#5-IgG2 product; not shown: human κ light chain constant region (vector pCMV-LC)
B5: Qb#3 Fab fragment (Fab, V domains shown)
VH: QVQLQESGPGLVKPSETLSLTCTVSGGSISSGNYYWSWIRQTPEKGLEWLGYVHYTGSSKLNPSLKSRVTISVDTYTNQFSLSLSSMTAADTAVYYCARGKNCANDICYIGSWFDPWGQGTLVTVSS
VL: ELVMTQSPSSLSASVGDRVTITCRASQGVSRALAWYQQKPGNPPKLLIYDASNLQSGVPSRFSGGGSGTEFILTISSLQPEDFATYYCQQYNAYPWTFGQGTKLEIK
notes: domain: γ2 heavy chain Fd region; The Fd part is from human γ2; also called Qβ#3 Fab; pCB15-Qb#3-Fab product; not shown: human κ light chain constant region (vector pCMV-LC)
B6: Qb#2 Fab fragment (Fab, V domains shown)
VH: EVQLLESGPGLVKPSETLSLTCTVSGGSISSGNYYWSWIRQTPEKGLEWLGYVHYTGSSKLNPSLKSRVTISVDTYTNQFSLSLSSMTAADTAVYYCARGKNCANDICYIGSWFDPWGQGTLVTVSS
VL: ELGLTQPPSVSGAPGQRVTISCTGSSSNIGRFDVHWYQQLPGTAPKLLIYGNTNRPSGVPDRFSGSKSGSSASLAITGLQAEDEADYYCQSYDRSLSGVVFGGGTQLTVLG
notes: domain: γ2 heavy chain Fd region; The Fd part is from human γ2; also called Qβ#2 Fab; pCB15-Qb#2-Fab product; not shown: human κ light chain constant region (vector pCMV-LC)
B7: Qb#5 Fab fragment (Fab, V domains shown)
VH: EVQLVQSGPGLVKPSETLSLTCTVSGGSISSTSYSWGWIRQPPGKGLEWIATVSYSGRSYSNPSLKSRVTTSVDTSKNQFSLRLGSVTAADTAVYYCARLYYIWRSYHSGRFDYWGQGTLVPVSS
VL: ELVLTQPPSVSGAPGQRVSISCTGSSSNIGARYDVHWYQQLPGTAPKLLIYGNTNRPSGVPDRFSGSKSGSSASLAITGLQAEDEADYYCQSYDRSLSGVVFGGGTKLTVLG
notes: domain: γ2 heavy chain Fd region; The Fd part is from human γ2; also called Qβ#5 Fab; pCB15-Qb#5-Fab product; not shown: human κ light chain constant region (vector pCMV-LC)
B8: scFv-Qb#2-Fc (Fc fusion)
scFv: DADPAQAAELGLTQPPSVSGAPGQRVTISCTGSSSNIGRFDVHWYQQLPGTAPKLLIYGNTNRPSGVPDRFSGSKSGSSASLAITGLQAEDEADYYCQSYDRSLSGVVFGGGTQLTVLGGGSSRSSSSGGGGSGGGGEVQLLESGPGLVKPSETLSLTCTVSGGSISSGNYYWSWIRQTPEKGLEWLGYVHYTGSSKLNPSLKSRVTISVDTYTNQFSLSLSSMTAADTAVYYCARGKNCANDICYIGSWFDPWGQGTLVTVSSASTKGPSVTSGQAGRKLTHTCPPCPAPEAEGAPSVFLFPPKPKDTLMISRTPEVTCVVVDVSHEDPEVKFNWYVDGVEVHNAKTKPREEQYNSTYRVVSVLTVLHQDWLNGKEYKCKVSNKALPASIEKTISKAKGQPREPQVYTLPPSRDELTKNQVSLTCLVKGFYPSDIAVEWESNGQPENNYKTTPPVLDSDGSFFLYSKLTVDKSRWQQGNVFSCSVMHEALHNHYTQKSLSLSPGK
notes: also called pCEP/scFvQb#2-Fc product
B9: scFv-Qb#5-Fc (Fc fusion)
scFv: DADPAQAAELVLTQPPSVSGAPGQRVSISCTGSSSNIGARYDVHWYQQLPGTAPKLLIYGNTNRPSGVPDRFSGSKSGSSASLAITGLQAEDEADYYCQSYDRSLSGVVFGGGTKLTVLGGGSSRSSSSGGGGSGGGGEVQLVQSGPGLVKPSETLSLTCTVSGGSISSTSYSWGWIRQPPGKGLEWIATVSYSGRSYSNPSLKSRVTTSVDTSKNQFSLRLGSVTAADTAVYYCARLYYIWRSYHSGRFDYWGQGTLVPVSSASTKGPSVTSGQAGRKLTHTCPPCPAPEAEGAPSVFLFPPKPKDTLMISRTPEVTCVVVDVSHEDPEVKFNWYVDGVEVHNAKTKPREEQYNSTYRVVSVLTVLHQDWLNGKEYKCKVSNKALPASIEKTISKAKGQPREPQVYTLPPSRDELTKNQVSLTCLVKGFYPSDIAVEWESNGQPENNYKTTPPVLDSDGSFFLYSKLTVDKSRWQQGNVFSCSVMHEALHNHYTQKSLSLSPGK
notes: The entry may contain the signal peptide; also called pCEP/scFvQb#5-Fc product
B10: scFv-Qb#3-Fc (Fc fusion)
scFv: DADPAQAAELVMTQSPSSLSASVGDRVTITCRASQGVSRALAWYQQKPGNPPKLLIYDASNLQSGVPSRFSGGGSGTEFILTISSLQPEDFATYYCQQYNAYPWTFGQGTKLEIKGGSSRSSSSGGGGSGGGGQVQLQESGPGLVKPSETLSLTCTVSGGSISSGNYYWSWIRQTPEKGLEWLGYVHYTGSSKLNPSLKSRVTISVDTYTNQFSLSLSSMTAADTAVYYCARGKNCANDICYIGSWFDPWGQGTLVTVSSASTKGPSVTSGQAGRKLTHTCPPCPAPEAEGAPSVFLFPPKPKDTLMISRTPEVTCVVVDVSHEDPEVKFNWYVDGVEVHNAKTKPREEQYNSTYRVVSVLTVLHQDWLNGKEYKCKVSNKALPASIEKTISKAKGQPREPQVYTLPPSRDELTKNQVSLTCLVKGFYPSDIAVEWESNGQPENNYKTTPPVLDSDGSFFLYSKLTVDKSRWQQGNVFSCSVMHEALHNHYTQKSLSLSPGK
notes: The entry may contain the signal peptide; also called pCEP/scFvQb#3-Fc product
B11: scFv-Qb#8-Fc (Fc fusion)
scFv: DADPAQAAELVVTQEPSVSGAPGQSVTISCTGGSSNIGASYDVHWYKQLPGAAPILLIYANYIRPSGVPDRFSASKSGTSASLAITGLQAEDEADYYCQSYDSSLSGVVFGGGTKLTVLGGGSSRSSSSGGGGSGGGGQVQLQESGGGWVQSGGSLRLSCAASGFSFSSYAMSWVRQAPGKGLEWVSAMSPIGGSTFYADSVKGRFTISRDNSKNTLFLQMNSLRAEDTAVYYCAKDAVVTAVGLGRYFDLWGRGTLVSVSSASTKGPSVTSGQAGRKLTHTCPPCPAPEAEGAPSVFLFPPKPKDTLMISRTPEVTCVVVDVSHEDPEVKFNWYVDGVEVHNAKTKPREEQYNSTYRVVSVLTVLHQDWLNGKEYKCKVSNKALPASIEKTISKAKGQPREPQVYTLPPSRDELTKNQVSLTCLVKGFYPSDIAVEWESNGQPENNYKTTPPVLDSDGSFFLYSKLTVDKSRWQQGNVFSCSVMHEALHNHYTQKSLSLSPGK
notes: The entry may contain the signal peptide; also called pCEP/scFvQb#8-Fc product

One assay addresses T1, Qβ. The experiment in a line: ELISA, Qβ coated, purified IgG2; range of concentrations of half-maximal binding. A general note: In an ELISA, binding on a coated surface is turned into a signal by an enzyme label.
As for B1, the EC50 (commonly the concentration giving half of the maximal effect) was 0.015 to 0.037 nM.

The molecule B2 yielded an EC50 of 0.025 to 0.056 nM.

For the molecule B3, the EC50 lay in the range of 0.456 to 1.1 nM.

B4 came in with an EC50 of 0.021 to 0.054 nM.

A further assay concerns the target T1, Qβ. In words: ELISA, Qβ coated, purified Fab; range of concentrations of half-maximal binding.
B5 came in with an EC50 of 0.077 to 0.239 nM.

B6 came in with an EC50 of 0.261 to 0.454 nM.

Molecule B7 showed an EC50 of 0.082 to 0.236 nM.

The target of the next assay is T1, Qβ. The experiment in a line: ELISA, Qβ coated, purified scFv-Fc titrated; concentration of half-maximal binding.
B8: the EC50 was determined as 0.051 nM.

Turning to B9, the EC50 was determined as 0.052 nM.

On to B10, for which the midpoint of the response, the EC50, lay at 0.035 nM.

Regarding B11, the EC50 turned out to be 0.163 nM.
